Reference: patent publication US20250333487A1 (CYTOMX THERAPEUTICS, published 2025)
Where no end group is shown, it is not given here. The star is where a group is joined. Biotin = O=C1N[C@H]2[C@H](CS[C@H]2CCCCC(=O)*)N1

T1: biotinylated BC2 tag peptide QGQSGQPDRKAAVSHWQ
T1 construct: Synthesized at ELIM Biopharmaceuticals; loaded on SSA biosensor tips at 100 nM; also called free BC2T peptide; the peptide
T1 peptide: Biotin-QGQSGQPDRKAAVSHWQ

B1: ProC654 (PP078), single-anchored BC2T-Nb: BC2 tag-PLGLAG-Nanobody, intact (VHH)
chain: QGQSGQPDRKAAVSHWQQGGGSSGGSPLGLAGGGGSQVQLVESGGGLVQPGGSLTLSCTASGFTLDHYDIGWFRQAPGKEREGVSCINNSDDDTYYADSVKGRFTIFMNNAKDTVYLQMNSLKPEDTAIYYCAEARGCKRGRYEYDFWGQGTQVTVSSGGSHHHHHHHHHH
notes: Monomer, uncleaved (masked) form; also called single-domain antibody with MM attached with a CM PLGLAG
B2: ProC653 (PP077), single-anchored BC2T-Nb: BC2 tag-1490DNI-Nanobody, intact (VHH)
chain: QGQSGQPDRKAAVSHWQQGGGSSGGSISSGLLSGRSDNIGGGSQVQLVESGGGLVQPGGSLTLSCTASGFTLDHYDIGWFRQAPGKEREGVSCINNSDDDTYYADSVKGRFTIFMNNAKDTVYLQMNSLKPEDTAIYYCAEARGCKRGRYEYDFWGQGTQVTVSSGGSHHHHHHHHHH
notes: Monomer, uncleaved (masked) form; also called single-domain antibody with MM attached with a CM 1490DNI
B3: ProC649 (PP073), single-domain antibody (nanobody) with no MM attached, with His tag (VHH)
VHH: QVQLVESGGGLVQPGGSLTLSCTASGFTLDHYDIGWFRQAPGKEREGVSCINNSDDDTYYADSVKGRFTIFMNNAKDTVYLQMNSLKPEDTAIYYCAEARGCKRGRYEYDFWGQGTQVTVSS
notes: Monomer; also called unmasked nanobody; unmasked control

Columns and labels:
[1] = biological target: T1, biotinylated BC2 tag peptide …; assay: BLI (ForteBio Octet), biotinylated peptide on SSA biosensor tips
Method: Intact ProC653 and ProC654 show no binding to the biotinylated BC2 tag peptide, but binding was recovered upon activation with either MMP14 or MMP9, respectively.
(§1) Binding of the unmasked nanobody and single-anchored BC2T-Nb to free BC2T peptide was assessed by BLI using the ForteBio Octet device. While BLI is generally used to calculate association and dissociation kinetics of binding interactions, it was used herein to detect binding Peptide corresponding to the following sequence: […] (SEQ ID NO: 567) was synthesized at ELIM Biopharmaceuticals with a biotin at the N-terminus. The peptide was loaded on SSA biosensor tips (Pall/ForteBio Cat #18-5117) at 100 nM in Binding Buffer (BB: 1×PBS, pH 7.2, 5% glycerol, 0.1% Tween-20, 2% BSA) for 10 minutes. Baseline incubation in BB for 1 min before and after this capture step were used to confirm protein capture. The loaded tips were then incubated in 100 nM Nb in BB for 6 minutes followed by incubation in BB for 6 minutes. Changes in interference distance (nanometers) at the sensor tip are plotted against time to follow the binding/dissociation of soluble proteins from the immobilized ligand on the tip (FIG. 7).

[2] = biological target: T1, biotinylated BC2 tag peptide …; assay: BLI (ForteBio Octet), biotinylated peptide on SSA biosensor tips, 100 nM Nb
Method: as §1

Row | Binder | binding result [1] | binding result [2]
1 | B1 | no binding (tested: 100 nM) | –
2 | B2 | no binding (tested: 100 nM) | –
3 | B3 | – | binds
